B1: RAP: Receptor associated protein, an LRP1 antagonist which inhibits ligand binding to LRP1 (protein, UniProt P30533 35-357, looked up)
Alpha-2-macroglobulin …: YSREKNQPKPSPKRESGEEFRMEKLNQLWEKAQRLHLPPVRLAELHADLKIQERDELAWKKLKLDGLDEDGEKEARLIRNLNVILAKYGLDGKKDARQVTSNSLSGTQEDGLDDPRLEKLWHKAKTSGKFSGEELDKLWREFLHHKEKVHEYNVLLETLSRTEEIHENVISPSDLSDIKGSVLHSRHTELKEKLRSINQGLDRLRRVSHQGYSTEAEFEEPRVIDLWDLAQSANLTDKELEAFREELKHFEAKIEKHNHYQKQLEIAHEKLRHAESVGDGERVSRSREKHALLEGRTKELGYTVKKHLQDLSGRISRARHNEL

What was measured:
[1] = tested on: CD13+ pericytes; assay: Cy3-Aβ42 uptake by pericytes on freshly isolated mouse brain cortical slices; format: cell-based; details: Cy3-Aβ42 1 μM
Description: Brain slices were prepared from 2-month old C57BL6 mice or Lrp^lox/lox;Cspg4-Cre mice. Following the urethane anesthesia, brains were quickly removed from the cranial cavity and sectioned with McIlwain tissue chopper (Ted Pella, Inc., Redding, CA, USA) into 200 μm thick slices containing cortex and hippocampus, as previously described. Slices were recovered for 30 min in a submersion chamber filled with the per-warmed (at 37 °C) artificial cerebrospinal fluid (aCSF; 126 mM NaCl, 2.5 mM KCl, 1.25 mM Na2PO4, 26 mM NaHCO3, 1 mM MgCl2, 2 mM CaCl2, 0.5 mM ascorbic acid, 2 mM sodium pyrurate, and 10 mM glucose, saturated with 95% O2 and 5% CO2). […] (anti-LRP1 N20, 50 μg/ml; Santa Cruz Biotech., Santa Cruz, CA, USA) for 20 min at 37 °C. At the end of the experiment, brain slices were washed with phosphate buffer saline (PBS) and fixed with 4% PFA for 30 min. The same immunostaining procedure as for human brain tissue without antigen retrieval was performed on mouse brain slices. Primary antibodies included goat anti-mouse aminopeptidase N (CD13) (1:100, R&D Systems), and goat anti-mouse PDGFRβ (1:100, R&D Systems). Secondary antibodies were: Alexa 488-conjugated donkey anti-goat (1:200, Invitrogen). Images were obtained with Zeiss 510 confocal microscopy (Carl Zeiss MicroImaging Inc.) with lasers and band-pass filter settings as described above. […]

[2] = tested on: primary mouse brain pericytes; assay: Clearance of aggregated Cy3-Aβ42 from multi-spot glass slides by primary mouse brain pericytes; format: cell-based; details: 5 days of culture, 1 μg Cy3-Aβ42 per spot, 5,000 cells per spot; anti-LRP1 50 μg/ml, RAP 500 nM, or si.Lrp1; compared to cell-free control; N = 4 independent cultures, mean
Text: Brain capillaries were isolated from mouse cortices pooled from 3 to 4 mouse brains for each biological replicate. In experiments in Figs. 4 and 5, we used 3–4 independent biological replicates (cultures), as indicated in the legends to these respective figures. Capillaries were isolated as we have described previously. In brief, mouse cortices were macroscopically dissected, and all visible white matter was discarded in ice-cold PBS containing 2% fetal bovine serum (FBS). The brain was homogenized in PBS containing 2% FBS and centrifuged at 6,000 g for 15 min after addition of Dextran (70 kDa, Sigma). The capillary pellet was collected and sequentially filtered through a 45 μm cell strainer (BD Falcon). […]
The multi-spot glass slides (Thermo Scientific, 9991090, Waltham, MA, USA) were coated with Cy3- Aβ42 [29, 51] at 1 μg per spot without cells or with brain capillary pericytes treated with non-immune IgG (NI-IgG) or LRP1-specific blocking antibody (anti-LRP1; 50 μg/ml) or) or apoE-specific blocking antibody (anti-apoE, HJ6.3, 50 μg/ml), scrambled siRNA (si.Control) or LRP1 siRNA (si.Lrp1) (Dharmacon, E-040764-00-0010) or apoE siRNA (si.Apoe) (Dharmacon, E-040885-00-0005), and 500 nM receptor-associated protein (RAP) (EMD Bioscience), lipidated apoE3 (40 nM) or apoE4 (40 nM). […] The Cy3-Aβ42 relative intensity was analyzed with the NIH Image J software. […]

| Molecule | Uptake of Cy3-Aβ42 by pericytes, time course ([1]; 30 min vs 2 h) | Cy3-Aβ42+ area occupying CD13+ pericyte profiles ([1]; 2 h, in the presence of the LRP1 inhibitor (anti-LRP1 50 μg/ml), confocal microscopy, N = 4 independent cultures, mean) [%] | Cy3-Aβ42 cleared by pericytes [2] [%] |
| --- | --- | --- | --- |
| Cy3-Aβ42: Human Cy3-labelled amyloid-β42; preparation contained monomers, dimers, trimers, tetramers and small molecular weight oligomers [reference compound] | rapid and time-dependent | – | – |
| B1 | – | 21.7 | 27.3 |

Reference: PMC6194676, “Blood-brain barrier-associated pericytes internalize and clear aggregated amyloid-β42 by LRP1-dependent apolipoprotein E isoform-specific mechanism” (Molecular Neurodegeneration, 2018)
